According to publication PMC4778049, “A Helitron transposon reconstructed from bats reveals a novel mechanism of genome shuffling in eukaryotes” (Nature Communications, 2016):

Experiments:
Helraiser transposase = biological target: T1, Helraiser transposase (Myotis lucifugus, UniProt Z9MI32ZQP9, K1068Q); experiment: colorimetric ATPase assay (pyrophosphate release as printed); format: biochemical; conditions: Walker A mutant; ATP hydrolysis abolished
T1 construct: full-length synthesized consensus transposase, 1,496 aa (N-terminal domain, Rep HUH nuclease, SF1 helicase); baculovirus expression, purified
T1 sequence (Z9MI32ZQP9 1-1496 K1068Q): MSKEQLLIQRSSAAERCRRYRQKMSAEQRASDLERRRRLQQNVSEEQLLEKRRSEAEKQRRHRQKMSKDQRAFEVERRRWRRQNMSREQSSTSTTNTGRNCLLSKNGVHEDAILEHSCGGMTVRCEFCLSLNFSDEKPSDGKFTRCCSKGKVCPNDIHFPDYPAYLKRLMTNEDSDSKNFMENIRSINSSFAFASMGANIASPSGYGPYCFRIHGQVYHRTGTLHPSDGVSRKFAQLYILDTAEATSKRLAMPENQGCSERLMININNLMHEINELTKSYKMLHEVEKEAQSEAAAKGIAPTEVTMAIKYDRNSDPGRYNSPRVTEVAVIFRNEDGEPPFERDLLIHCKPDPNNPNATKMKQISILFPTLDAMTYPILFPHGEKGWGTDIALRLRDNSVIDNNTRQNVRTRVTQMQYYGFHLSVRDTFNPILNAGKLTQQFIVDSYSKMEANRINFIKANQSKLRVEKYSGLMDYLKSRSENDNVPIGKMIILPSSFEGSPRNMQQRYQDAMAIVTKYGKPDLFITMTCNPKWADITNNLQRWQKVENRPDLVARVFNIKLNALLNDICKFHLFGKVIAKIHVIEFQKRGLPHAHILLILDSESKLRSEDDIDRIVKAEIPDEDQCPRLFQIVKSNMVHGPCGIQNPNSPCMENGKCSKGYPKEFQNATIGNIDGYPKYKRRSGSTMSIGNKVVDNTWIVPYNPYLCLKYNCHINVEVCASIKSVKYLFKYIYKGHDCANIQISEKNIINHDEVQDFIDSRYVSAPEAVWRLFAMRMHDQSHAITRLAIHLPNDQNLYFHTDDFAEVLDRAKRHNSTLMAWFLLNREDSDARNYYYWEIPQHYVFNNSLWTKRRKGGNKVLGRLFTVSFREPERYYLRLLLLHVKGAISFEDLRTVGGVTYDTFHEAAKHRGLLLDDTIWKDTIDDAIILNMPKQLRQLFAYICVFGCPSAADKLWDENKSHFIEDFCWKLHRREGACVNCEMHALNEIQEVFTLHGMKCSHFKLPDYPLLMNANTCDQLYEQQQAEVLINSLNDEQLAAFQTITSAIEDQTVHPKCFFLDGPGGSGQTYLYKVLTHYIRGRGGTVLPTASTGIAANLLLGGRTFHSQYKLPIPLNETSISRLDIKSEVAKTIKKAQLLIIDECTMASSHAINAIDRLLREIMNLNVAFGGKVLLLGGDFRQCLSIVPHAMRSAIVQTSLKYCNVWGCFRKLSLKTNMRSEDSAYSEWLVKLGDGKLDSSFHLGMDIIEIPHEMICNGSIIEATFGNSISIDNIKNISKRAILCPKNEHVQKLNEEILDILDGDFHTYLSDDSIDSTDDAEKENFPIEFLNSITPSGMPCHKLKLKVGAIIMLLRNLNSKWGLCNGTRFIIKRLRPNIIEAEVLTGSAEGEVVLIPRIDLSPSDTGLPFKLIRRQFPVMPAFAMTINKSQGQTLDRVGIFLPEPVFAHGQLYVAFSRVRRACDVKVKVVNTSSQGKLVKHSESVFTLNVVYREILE

[1] = substrate: Nc1ncnc2c1ncn2[C@@H]1O[C@H](COP(=O)(O)OP(=O)(O)OP(=O)(O)O)[C@@H](O)[C@H]1O; experiment: as above; format: biochemical, Myotis lucifugus; conditions: DNA, metal, pH and temperature of the Km measurement not told in main text; helicase domain (Walker A) site

| Molecule | colorimetric ATPase assay (pyrophosphate release as printed) (Helraiser transposase) | Km [1] | kcat [1] |
| --- | --- | --- | --- |
| Nc1ncnc2c1ncn2[C@@H]1O[C@H](COP(=O)(O)OP(=O)(O)OP(=O)(O)O)[C@@H](O)[C@H]1O [ATP] | Mutation of the Walker A motif K1068 abolished ATP hydrolysis | – | – |
| Helraiser transposase (Myotis lucifugus) (protein, full-length synthesized consensus transposase, 1,496 aa (N-terminal domain, Rep HUH nuclease, SF1 helicase); baculovirus expression, purified) MSKEQLLIQRSSAAERCRRYRQKMSAEQRASDLERRRRLQQNVSEEQLLEKRRSEAEKQRRHRQKMSKDQRAFEVERRRWRRQNMSREQSSTSTTNTGRNCLLSKNGVHEDAILEHSCGGMTVRCEFCLSLNFSDEKPSDGKFTRCCSKGKVCPNDIHFPDYPAYLKRLMTNEDSDSKNFMENIRSINSSFAFASMGANIASPSGYGPYCFRIHGQVYHRTGTLHPSDGVSRKFAQLYILDTAEATSKRLAMPENQGCSERLMININNLMHEINELTKSYKMLHEVEKEAQSEAAAKGIAPTEVTMAIKYDRNSDPGRYNSPRVTEVAVIFRNEDGEPPFERDLLIHCKPDPNNPNATKMKQISILFPTLDAMTYPILFPHGEKGWGTDIALRLRDNSVIDNNTRQNVRTRVTQMQYYGFHLSVRDTFNPILNAGKLTQQFIVDSYSKMEANRINFIKANQSKLRVEKYSGLMDYLKSRSENDNVPIGKMIILPSSFEGSPRNMQQRYQDAMAIVTKYGKPDLFITMTCNPKWADITNNLQRWQKVENRPDLVARVFNIKLNALLNDICKFHLFGKVIAKIHVIEFQKRGLPHAHILLILDSESKLRSEDDIDRIVKAEIPDEDQCPRLFQIVKSNMVHGPCGIQNPNSPCMENGKCSKGYPKEFQNATIGNIDGYPKYKRRSGSTMSIGNKVVDNTWIVPYNPYLCLKYNCHINVEVCASIKSVKYLFKYIYKGHDCANIQISEKNIINHDEVQDFIDSRYVSAPEAVWRLFAMRMHDQSHAITRLAIHLPNDQNLYFHTDDFAEVLDRAKRHNSTLMAWFLLNREDSDARNYYYWEIPQHYVFNNSLWTKRRKGGNKVLGRLFTVSFREPERYYLRLLLLHVKGAISFEDLRTVGGVTYDTFHEAAKHRGLLLDDTIWKDTIDDAIILNMPKQLRQLFAYICVFGCPSAADKLWDENKSHFIEDFCWKLHRREGACVNCEMHALNEIQEVFTLHGMKCSHFKLPDYPLLMNANTCDQLYEQQQAEVLINSLNDEQLAAFQTITSAIEDQTVHPKCFFLDGPGGSGKTYLYKVLTHYIRGRGGTVLPTASTGIAANLLLGGRTFHSQYKLPIPLNETSISRLDIKSEVAKTIKKAQLLIIDECTMASSHAINAIDRLLREIMNLNVAFGGKVLLLGGDFRQCLSIVPHAMRSAIVQTSLKYCNVWGCFRKLSLKTNMRSEDSAYSEWLVKLGDGKLDSSFHLGMDIIEIPHEMICNGSIIEATFGNSISIDNIKNISKRAILCPKNEHVQKLNEEILDILDGDFHTYLSDDSIDSTDDAEKENFPIEFLNSITPSGMPCHKLKLKVGAIIMLLRNLNSKWGLCNGTRFIIKRLRPNIIEAEVLTGSAEGEVVLIPRIDLSPSDTGLPFKLIRRQFPVMPAFAMTINKSQGQTLDRVGIFLPEPVFAHGQLYVAFSRVRRACDVKVKVVNTSSQGKLVKHSESVFTLNVVYREILE | – | 46 ± 3.3 µM | 6.8 ± 0.11 s⁻¹ |
